From patent US5474928A, “Arginine deiminase from a Mycoplasma arginini strain” (Nippon Mining Company, Limited, priority 1989, dated 1995)

Substrate: N=C(N)NCCC[C@H](N)C(=O)O
Experiment: Km determination by Lineweaver-Burk plot analysis, citrulline formation assay
Type: biochemical, Mycoplasma arginini
Details: other: purified enzyme from M. arginini, substrate L-arginine, pH 7.0
Experimental: The activity of arginine deiminase can be determined by causing it to produce citrulline using the method reported by Fenske et. al. [J. Bacteriol. 126, 501-510 (1976)], and by measuring the amount of the yields using the method given by Archibald [J. Biol. Chem. 156, 121-142 (1944)].
Specifically, 20 μl of arginine deiminase solution is added to 1.0 ml of 10 mM arginine [dissolved in 0.1M phosphate buffer of pH 7.0], then an enzyme reaction is allowed to take place at 37° C. for 10 minutes, and the reaction is terminated by adding 1 ml of mixed acid solution (H2 SO4 :H3 PO4 =1:3). Then, the resultant reactive solution is added with 25 μl of 3% aqueous diacetylmonooxim solution, heated at 100° C. for 20 minutes under a light-shielded condition, left to cool under a room temperature for 30 minutes, and then the amount of the citrulline yield is measured quantitatively by measuring the absorbence at 490 nm. The activity of arginine deiminase producing 1 μmol of citrulline in one minute is defined as 1 unit.
v) Km value and Vmax value
By the Lineweaver-Burk plot analysis Km and Vmax were determined as 0.2 mM and 50 U/mg, respectively.

B1: Mycoplasma arginini (IFO 14476) arginine deiminase (EC 3.5.3.6), present invention, amino acid sequence of FIG. 4 (Mycoplasmopsis arginini) (protein)
chain: MSVFDSKFKGIHVYSEIGELESVLVHEPGREIDYITPARLDELLFSAILESHDARKEHKQFVAELKANDINVVELIDLVAETYDLASQEAKDKLIEEFLEDSEPVLSEEHKVVVRNFLKAKKTSRELVEIMMAGITKYDLGIEADHELIVDPMPNLYFTRDPFASVGNGVTIHYMRYKVRQRETLFSRFVFSNHPKLINTPWYYDPSLKLSIEGGDVFIYNNDTLVVGVSERTDLQTVTLLAKNIVANKECEFKRIVAINVPKWTNLMHLDTWLTMLDKDKFLYSPIANDVFKFWDYDLVNGGAEPQPVENGLPLEGLLQSIINKKPVLIPIAGEGASQMEIERETHFDGTNYLAIRPGVVIGYSRNEKTNAALEAAGIKVLPFHGNQLSLGMGNARCMSMPLSRKDVKW
notes: Arginine deiminase was purified from the M. arginini cell extract; endogenous in cells; host or cells: Mycoplasma arginini IFO 14476 cells (strain from the Institute for Fermentation, Osaka); enzyme purified in house by three chromatography steps
Km: 200 µM
